Reference: patent US20210009686A1

How the values were obtained:
[1] = biological target: claudin 18.1 (CLDN18.1) (human) (UniProt P56856); experiment: FACS, hybridoma supernatant on HEK293-CLDN18.1
[2] = biological target: claudin 18.1 (CLDN18.1) (human) (UniProt P56856); experiment: in-cell ELISA, hybridoma supernatant on HEK293-CLDN18.1 cells

Chain of claudin 18.1 (CLDN18.1) (human) (P56856 whole entry): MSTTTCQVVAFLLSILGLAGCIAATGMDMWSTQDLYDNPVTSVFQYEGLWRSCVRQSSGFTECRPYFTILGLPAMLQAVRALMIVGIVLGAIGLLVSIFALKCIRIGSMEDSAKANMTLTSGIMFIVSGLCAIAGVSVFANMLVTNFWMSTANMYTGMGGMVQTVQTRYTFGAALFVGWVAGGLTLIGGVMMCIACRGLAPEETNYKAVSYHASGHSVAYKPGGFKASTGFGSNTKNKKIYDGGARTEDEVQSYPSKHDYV

B1: hybridoma clone 10-L9-A (antibody, V domains shown)
VH: EVQLVESGGGLVKPGGSRKLSCAASGFTFSDYGMHWVRQAPEKGLEWIAYINSGSSTIYYADTVKGRFTISRDNAKNTLFLQMTSLRSEDTAMFYCARFARGNVLDYWGQGTSVTVSS
VL: DIVMTQSPSSLTVTAGEKVTMSCRSSQSLLNSGNQRNYLTWYQQKPGHPPKLLIYWASTRESGVPDRFTGSGSGTDFTLTISGVQAEDLAVYYCQNGYSYPLTFGAGTKLEVK
- MFI [1]: 14300
- OD450/µg IgG [2]: 0.62 OD450/µg IgG
